Measured values reported in PMC11137106.

Target: ribosomal protein L23 (E. coli (endogenous in A19 cell extract)) (UniProt P0ADZ0)
Experiment: cross-linking; zero-length EDC crosslinking of resuspended RNCs (ca. 30 nM) made in WT or Δtig A19 E. coli cell-free system (WT: TF 2–15 nM, DnaK 0.5 µM, DnaJ 0.04 µM, GrpE 0.05 µM), +/- puromycin; low-pH SDS-PAGE of the BODIPY-FL nascent chain and Western blots against L23, L24 and L29; percent crosslinking by ImageJ

| Substance | % EDC crosslinking | normalized % EDC crosslinking (per EDC-reactive residue beyond the ribosomal tunnel core) |
| --- | --- | --- |
| apoHmp_(1–140) ribosome-bound nascent chain (from UniProt P24232 1-140) (domain or fragment; other documents disagree on this pair) | 92% | 4.6% |
| apoHmp_(1–189) ribosome-bound nascent chain (from UniProt P24232 1-189) (domain or fragment; other documents disagree on this pair) | 85% | 2.8% |
| apoHmp_(1–55) ribosome-bound nascent chain (from UniProt P24232 1-55) (domain or fragment; other documents disagree on this pair) | 27.4% | 5.5% |
